According to patent publication US20230174596A1 (published 2023):

T1: hVEGF-A (8-109) (human, UniProt P15692 214-315)
T1 construct: residue numbers count on mature VEGF-A; dimer
T1 sequence (looked up): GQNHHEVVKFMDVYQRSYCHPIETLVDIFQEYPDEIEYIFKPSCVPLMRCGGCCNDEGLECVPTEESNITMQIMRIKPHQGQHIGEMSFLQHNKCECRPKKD


target: T1, hVEGF-A (8-109); assay: spot phage ELISA

Row | Binder | ELISA | S/N
1 | GCKNPLFNWALYCKQDSDCLAGCVCQLFDSCG (designed binder) [VEGF_CKP7.8] | 0.5 | 7.5
2 | GCETDWYPHQIDCKQDSDCLAGCVCGPNGFCG (designed binder) [VEGF_CKP1] | 0.9 | 16.9
3 | GCNIMLPFWGCSGDFACLAGCVCQYYQSCG (designed binder) [VEGF_CKP9.54.64] | 2.2 | 22.4
4 | GCNIMLPFWGCGYDLQCLAGCVCQYYQSCG (designed binder) [VEGF_CKP9.54.87] | 2.4 | 26.1
5 | GCGETVFEQFLWCKQDSDCLAGCVCGPNGFCG (designed binder) [VEGF_CKP2] | 3.2 | 48.1
6 | GCNIMLPFWGCGKDFHCLAGCVCQYYQSCG (designed binder) [VEGF_CKP9.54.56] | 2.3 | 35.8
7 | GCWDPTFNWALYCKQDSDCLAGCVCQMYDSCG (designed binder) [VEGF_CKP7.24] | 0.8 | 13.4
8 | GCLDRTLNWALYCKQDSDCLAGCVCQMYNSCG (designed binder) [VEGF_CKP7.54] | 0.5 | 9.3
9 | GCRDLTINWALFCKQDSDCLAGCVCQMFNSCG (designed binder) [VEGF_CKP7.73] | 1.2 | 19.2
10 | GCQDPTVNWAVYCKQDSDCLAGCVCQFYQSCG (designed binder) [VEGF_CKP7.17] | 0.8 | 13.4
11 | GCQDPTFNWAEYCKQDSDCLAGCVCQLYQSCG (designed binder) [VEGF_CKP7.19] | 0.6 | 11.1
12 | GCQDPTFNWAEYCKQDSDCLAGCVCQMYQSCG (designed binder) [VEGF_CKP7.35] | 0.6 | 10.6
13 | GCQDPTLNWATYCKQDSDCLAGCVCQMYQSCG (designed binder) [VEGF_CKP7.43] | 0.5 | 6.3
14 | GCNIMLPFWGCGPDLQCLAGCVCQYYQSCG (designed binder) [VEGF_CKP9.54.59] | 2.3 | 35.4
15 | GCHMMYDYCKQDSDCLAGCVCEMYDACG (designed binder) [VEGF_CKP3] | 3.1 | 42.9
16 | GCNIMLPFWGCGWSMDCLAGCVCQYYQSCG (designed binder) [VEGF_CKP9.54.76] | 2.7 | 42.2
17 | GCQDPSLNWADYCKQDSDCLAGCVCQMHQSCG (designed binder) [VEGF_CKP7.50] | 0.8 | 14.3
18 | GCNIMLPFWGCGKELNCLAGCVCQYYQSCG (designed binder) [VEGF_CKP9.54.69] | 2.5 | 21.7
19 | GCKDTTFNWGLFCKQDSDCLAGCVCQLYQSCG (designed binder) [VEGF_CKP7.78] | 0.7 | 11.8
20 | GCDDPSFDWSVYCKQDSDCLAGCVCRMYDSCG (designed binder) [VEGF_CKP7.2] | 1.2 | 21.5
21 | GCLDPSFNWSLYCKQDSDCLAGCVCQMYDSCG (designed binder) [VEGF_CKP7.57] | 1 | 17.4
22 | GCVTPWKPHWINCKQDSDCLAGCVCGPNGFCG (designed binder) [VEGF_CKP13] | 3.5 | 56.3
